Measurements as given in article PMC4741471 (Oncotarget, 2015).

Target: the molecule itself
Assay: non-reducing SDS-PAGE without heating

B1: cholera toxin B subunit (recombinant, His6-tagged CTB) (natural protein)
chain: TPQNITDLCAEYHNTQIYTLNDKIFSYTESLAGKREMAIITFKNGAIFQVEVPGSQHIDSQKKAIERMKDTLRIAYLTEAKVEKLCVWNNKTPHAIAAISMAN
B1 was tested, and the “stoichiometry N” value was 5.
